The values that follow come from paper PMC9366199, “Bivalent binding of p14ARF to MDM2 RING and acidic domains inhibits E3 ligase function” (Life Science Alliance, 2022).

The target in this experiment is T1, UBE2D2^(S22R C85K)–Ub (UniProt P62837 2-147; P0CG48 1-76, S22R | C85K).
T1 construct: UBE2D2 with S22R and C85K, conjugated to ubiquitin; ubiquitin (Ub), conjugated to UBE2D2; also called UBE2D2–Ub; UBE2D2–Ub conjugate; source: purified as described previously (Buetow et al, 2015)
Nature of the experiment: SPR; Biacore T200, 25°C; GST-MDM2 variants captured on anti-GST nanobodies on CM-5 chips (about 500 RU), GST as control; UBE2D2–Ub as analyte, seven twofold dilutions from 100 μM; 25 mM Tris-HCl pH 7.6, 300 mM NaCl, 0.5 mM TCEP, 0.005% Tween-20; steady-state affinity. The settings on record: both partners purified. (In general: Surface plasmon resonance follows binding to a sensor surface in real time, without labels.)

B1: GST-tagged MDM2^419-C containing the RING domain (domain or fragment, UniProt Q00987 419-491, looked up)
chain: TQDKEESVESSLPLNAIEPCVICQGRPKNGCIVHGKTGHLMACFTCAKKLKKRNKPCPVCRQPIQMIVLTYFP
notes: MDM2, residues 419 to the C-terminus (RING domain); TEV site between GST and MDM2 (modified pGEX-4T-1); the oligomeric state of the GST fusion was not measured here; also called GST-MDM2^RING; MDM2^RING; source: E. coli BL21-DE3; co-expressed with His-GFP-MDM2^220-334, in lysate (pull-down); not shown: GST, N-terminal, kept
In general, Kd refers to a measure of binding affinity in units of concentration. Low values mean tighter binding, high ones weaker binding. In turn, B1 came in with a Kd of 14.5 ± 1.4 µM.
